Numbered stars: 1 amine (or outer) side, 2 acyl side, 3 side chain; on linkers, the order of the positions; unused ones are H or OH. Square brackets hold non-standard residues; d marks the D form. * marks the point of attachment. CH═CH‑CON(CH3)CH2CH2Ph = CN(CCc1ccccc1)C(=O)/C=C/*; AAsp = aza-Asp, O=C(N(CC(=O)[*:3])N[*:1])[*:2]; CH═CH‑CON(CH3)CH2Ph = CN(Cc1ccccc1)C(=O)/C=C/*; Cbz = O=C(OCc1ccccc1)*
T1: Caspase-3 (UniProt P42574 29-277)
T1 sequence (looked up): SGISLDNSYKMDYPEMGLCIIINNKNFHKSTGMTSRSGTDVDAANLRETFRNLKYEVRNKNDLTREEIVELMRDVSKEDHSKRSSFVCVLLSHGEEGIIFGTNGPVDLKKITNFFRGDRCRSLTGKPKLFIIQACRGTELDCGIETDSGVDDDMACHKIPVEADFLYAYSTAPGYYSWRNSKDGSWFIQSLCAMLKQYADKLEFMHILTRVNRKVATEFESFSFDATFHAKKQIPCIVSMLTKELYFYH

T2: Caspase-2 (UniProt P42575 170-452, limits assumed)
T2 sequence (looked up): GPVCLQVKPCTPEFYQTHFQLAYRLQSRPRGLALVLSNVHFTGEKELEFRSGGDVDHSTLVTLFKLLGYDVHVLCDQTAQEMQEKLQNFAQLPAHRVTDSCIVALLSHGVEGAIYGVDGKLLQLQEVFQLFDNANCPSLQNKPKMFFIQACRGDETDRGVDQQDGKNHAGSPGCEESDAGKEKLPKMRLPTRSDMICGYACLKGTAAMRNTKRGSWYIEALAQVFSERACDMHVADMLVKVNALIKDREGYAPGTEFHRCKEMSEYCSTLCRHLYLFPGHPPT

T3: Caspase-10 (UniProt Q92851 220-521, limits assumed)
T3 sequence (looked up): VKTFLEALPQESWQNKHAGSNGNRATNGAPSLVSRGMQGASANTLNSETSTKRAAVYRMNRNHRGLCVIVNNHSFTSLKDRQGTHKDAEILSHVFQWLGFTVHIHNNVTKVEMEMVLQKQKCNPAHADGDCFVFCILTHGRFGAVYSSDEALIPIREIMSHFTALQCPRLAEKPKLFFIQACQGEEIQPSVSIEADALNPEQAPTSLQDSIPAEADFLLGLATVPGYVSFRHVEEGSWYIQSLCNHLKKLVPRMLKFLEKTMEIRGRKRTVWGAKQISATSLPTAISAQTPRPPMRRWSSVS

T4: Caspase-7 (UniProt P55210 24-303)
T4 sequence (looked up): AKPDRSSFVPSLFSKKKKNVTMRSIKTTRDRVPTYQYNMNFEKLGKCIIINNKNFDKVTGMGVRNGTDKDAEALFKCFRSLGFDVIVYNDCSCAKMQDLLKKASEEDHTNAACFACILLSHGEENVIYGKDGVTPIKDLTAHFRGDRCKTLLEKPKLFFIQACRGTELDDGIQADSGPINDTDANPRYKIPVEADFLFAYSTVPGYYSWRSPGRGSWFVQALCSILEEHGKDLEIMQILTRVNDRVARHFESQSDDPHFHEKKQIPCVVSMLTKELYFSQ

T5: Caspase-9 (UniProt P55211 1-416, limits assumed)
T5 sequence (looked up): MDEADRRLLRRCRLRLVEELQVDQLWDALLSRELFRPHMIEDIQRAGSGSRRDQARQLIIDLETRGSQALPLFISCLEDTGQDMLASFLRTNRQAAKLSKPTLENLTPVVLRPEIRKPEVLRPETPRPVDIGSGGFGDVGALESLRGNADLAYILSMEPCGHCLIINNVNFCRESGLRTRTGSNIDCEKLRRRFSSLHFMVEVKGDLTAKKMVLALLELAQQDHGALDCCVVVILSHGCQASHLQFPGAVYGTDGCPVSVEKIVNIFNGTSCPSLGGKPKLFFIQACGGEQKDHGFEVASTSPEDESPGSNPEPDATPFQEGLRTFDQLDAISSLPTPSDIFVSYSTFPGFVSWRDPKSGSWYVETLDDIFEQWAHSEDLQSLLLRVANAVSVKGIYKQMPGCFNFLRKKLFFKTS

T6: Caspase-6 (UniProt P55212 24-293, limits assumed)
T6 sequence (looked up): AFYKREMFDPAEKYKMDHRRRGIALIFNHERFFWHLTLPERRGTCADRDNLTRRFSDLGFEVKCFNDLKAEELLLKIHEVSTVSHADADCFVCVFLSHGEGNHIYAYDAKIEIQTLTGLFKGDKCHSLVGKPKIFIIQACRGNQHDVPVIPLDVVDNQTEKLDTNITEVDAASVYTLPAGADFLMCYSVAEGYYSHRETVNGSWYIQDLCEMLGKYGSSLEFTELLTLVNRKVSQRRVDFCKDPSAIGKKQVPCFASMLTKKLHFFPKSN

B1: Cbz-Asp-Glu-Val-AAsp-CH═CH-CON(CH3)CH2Ph (peptide)
peptide: Cbz-DEV[AAsp]-{CH═CH‑CON(CH3)CH2Ph}
SMILES: CC(C)[C@H](NC(=O)[C@H](CCC(=O)O)NC(=O)[C@H](CC(=O)O)NC(=O)OCc1ccccc1)C(=O)NN(CC(=O)O)C(=O)/C=C/C(=O)N(C)Cc1ccccc1
B2: Cbz-Asp-Glu-Val-AAsp-CH═CH-CON(CH3)CH2CH2Ph (peptide)
peptide: Cbz-DEV[AAsp]-{CH═CH‑CON(CH3)CH2CH2Ph}
SMILES: CC(C)[C@H](NC(=O)[C@H](CCC(=O)O)NC(=O)[C@H](CC(=O)O)NC(=O)OCc1ccccc1)C(=O)NN(CC(=O)O)C(=O)/C=C/C(=O)N(C)CCc1ccccc1

Each binder was assayed against T1, Caspase-3 (assay: cell-based or functional assay).

Row | Binder | k2
1 | B1 | 2.64e+06 M⁻¹ s⁻¹
2 | B2 | 1.18e+06 M⁻¹ s⁻¹
3 | Cbz-DEV[AAsp]-{CH═CH‑CON(CH2-1-Napth)2} [Cbz-Asp-Glu-Val-AAsp-CH═CH-CON(CH2-1-Napth)2] | 5.62e+06 M⁻¹ s⁻¹
4 | Cbz-DEV[AAsp]-{CH═CH‑CO‑tetrahydroquinoline} [Cbz-Asp-Glu-Val-AAsp-CH═CH-CON-tetrahydroquinoline] | 2.3e+06 M⁻¹ s⁻¹
5 | Cbz-DEV[AAsp]-{CH═CH‑COPh} [Cbz-Asp-Glu-Val-AAsp-CH═CH-COPh] | 122000 M⁻¹ s⁻¹

The binders below were run against T2, Caspase-2 (assay: cell-based or functional assay).

Row | Binder | k2
6 | B1 | 660 M⁻¹ s⁻¹
7 | B2 | 320 M⁻¹ s⁻¹
8 | Cbz-DEV[AAsp]-{CH═CH‑CON(CH2-1-Napth)2} [Cbz-Asp-Glu-Val-AAsp-CH═CH-CON(CH2-1-Napth)2] | 410 M⁻¹ s⁻¹
9 | Cbz-DEV[AAsp]-{CH═CH‑CO‑tetrahydroquinoline} [Cbz-Asp-Glu-Val-AAsp-CH═CH-CON-tetrahydroquinoline] | 390 M⁻¹ s⁻¹
10 | Cbz-DEV[AAsp]-{CH═CH‑COPh} [Cbz-Asp-Glu-Val-AAsp-CH═CH-COPh] | 165 M⁻¹ s⁻¹

These binders were tested against T3, Caspase-10 (assay: cell-based or functional assay).

Row | Binder | k2
11 | B1 | 29400 M⁻¹ s⁻¹
12 | B2 | 9570 M⁻¹ s⁻¹
13 | Cbz-DEV[AAsp]-{CH═CH‑CON(CH2-1-Napth)2} [Cbz-Asp-Glu-Val-AAsp-CH═CH-CON(CH2-1-Napth)2] | 32500 M⁻¹ s⁻¹
14 | Cbz-DEV[AAsp]-{CH═CH‑CO‑tetrahydroquinoline} [Cbz-Asp-Glu-Val-AAsp-CH═CH-CON-tetrahydroquinoline] | 8330 M⁻¹ s⁻¹
15 | Cbz-DEV[AAsp]-{CH═CH‑COPh} [Cbz-Asp-Glu-Val-AAsp-CH═CH-COPh] | 930 M⁻¹ s⁻¹

These binders were tested against T4, Caspase-7 (assay: cell-based or functional assay).

Row | Binder | k2
16 | B1 | 275000 M⁻¹ s⁻¹
17 | B2 | 172000 M⁻¹ s⁻¹
18 | Cbz-DEV[AAsp]-{CH═CH‑CON(CH2-1-Napth)2} [Cbz-Asp-Glu-Val-AAsp-CH═CH-CON(CH2-1-Napth)2] | 875000 M⁻¹ s⁻¹
19 | Cbz-DEV[AAsp]-{CH═CH‑CO‑tetrahydroquinoline} [Cbz-Asp-Glu-Val-AAsp-CH═CH-CON-tetrahydroquinoline] | 137000 M⁻¹ s⁻¹
20 | Cbz-DEV[AAsp]-{CH═CH‑COPh} [Cbz-Asp-Glu-Val-AAsp-CH═CH-COPh] | 10800 M⁻¹ s⁻¹

What follows are binders tested against Caspase-8 (UniProt Q14790 217-479) (assay: cell-based or functional assay).
Chain of Caspase-8 (Q14790 217-479 limits assumed): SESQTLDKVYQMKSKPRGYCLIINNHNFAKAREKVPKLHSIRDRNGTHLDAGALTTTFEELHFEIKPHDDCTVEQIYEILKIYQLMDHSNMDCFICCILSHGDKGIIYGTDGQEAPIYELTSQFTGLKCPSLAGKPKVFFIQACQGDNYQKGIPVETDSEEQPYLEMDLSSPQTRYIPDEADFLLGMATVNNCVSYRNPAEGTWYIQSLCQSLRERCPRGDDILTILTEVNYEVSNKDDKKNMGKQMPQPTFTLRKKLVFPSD

Row | Binder | k2
21 | B1 | 90300 M⁻¹ s⁻¹
22 | B2 | 31900 M⁻¹ s⁻¹
23 | Cbz-DEV[AAsp]-{CH═CH‑CON(CH2-1-Napth)2} [Cbz-Asp-Glu-Val-AAsp-CH═CH-CON(CH2-1-Napth)2] | 9460 M⁻¹ s⁻¹
24 | Cbz-DEV[AAsp]-{CH═CH‑CO‑tetrahydroquinoline} [Cbz-Asp-Glu-Val-AAsp-CH═CH-CON-tetrahydroquinoline] | 118000 M⁻¹ s⁻¹
25 | Cbz-DEV[AAsp]-{CH═CH‑COPh} [Cbz-Asp-Glu-Val-AAsp-CH═CH-COPh] | 9720 M⁻¹ s⁻¹

The binders below were run against T5, Caspase-9 (assay: cell-based or functional assay).

Row | Binder | k2
26 | B1 | 820 M⁻¹ s⁻¹
27 | B2 | 425 M⁻¹ s⁻¹
28 | Cbz-DEV[AAsp]-{CH═CH‑CON(CH2-1-Napth)2} [Cbz-Asp-Glu-Val-AAsp-CH═CH-CON(CH2-1-Napth)2] | 150 M⁻¹ s⁻¹
29 | Cbz-DEV[AAsp]-{CH═CH‑CO‑tetrahydroquinoline} [Cbz-Asp-Glu-Val-AAsp-CH═CH-CON-tetrahydroquinoline] | 340 M⁻¹ s⁻¹

The binders below were run against T6, Caspase-6 (assay: cell-based or functional assay).

Row | Binder | k2
30 | B1 | 9500 M⁻¹ s⁻¹
31 | B2 | 4000 M⁻¹ s⁻¹
32 | Cbz-DEV[AAsp]-{CH═CH‑CON(CH2-1-Napth)2} [Cbz-Asp-Glu-Val-AAsp-CH═CH-CON(CH2-1-Napth)2] | 29700 M⁻¹ s⁻¹
33 | Cbz-DEV[AAsp]-{CH═CH‑CO‑tetrahydroquinoline} [Cbz-Asp-Glu-Val-AAsp-CH═CH-CON-tetrahydroquinoline] | 5700 M⁻¹ s⁻¹
34 | Cbz-DEV[AAsp]-{CH═CH‑COPh} [Cbz-Asp-Glu-Val-AAsp-CH═CH-COPh] | 1800 M⁻¹ s⁻¹

— patent US20050256058A1 (GEORGIA TECH RESEARCH, published 2005)
